According to the nanobody polyreactivity screen of Harvey et al. (2022):

Assay: yeast display, Sf9 membrane polyspecificity reagent, FACS + sequencing; frameworks hold sequencing errors
In short: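 A nanobody's polyreactivity label depends on the gate it was sorted from. Yeast display cells were stained with 10% biotinylated, detergent-solubilized Sf9 membrane reagent for 1 hour at 4 °C, enriched on streptavidin microbeads and sorted by FACS. The low and high (top ~1%) gates were set on anti-HA fluorescence for expression and streptavidin fluorescence for reagent binding.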

| Sequence | polyreactivity (PSR sort gate) |
| --- | --- |
| QVQLVESGGGLVQAGGSLRLSCAASGRIFDLNAMGWYRQAPGKERELVAAITFSGGDTYADSVKGRFTISRDNAKNTVYLEMYSLKPEDTAVYYCAKDHYGDDTYGTPYDYDYWGQGTQVTVSS | low polyreactivity |
| QVQLVESGGGLVQAGGSLRLSCAASGYTFSANADMGWYRQAPGKESELVAAITGSGGITYYADSVKGRFTISRDNAKNTVYLQMNSLKPEDTAVYYCAAAVVDAAFDYWGQGTQVTVSS | low polyreactivity |
| QVQLGESGGGLVQAGGSLRLICAASGFIFTTYVMGWYRQAPGKERELVAVISRSGGRTYYADSVKGRFTISRDNEKYTVYLLMNSLKPEDTAVYYCNVDIPVLSHIEYYYWGQGTQVTVSS | low polyreactivity |
| QVQLQESAAGLVQAGGGLRLSCPASGTISGPHVMGWYRQSPGKEREFVAAINVGANTYYADNVKGRFTISRDNAKNTVYLQMNSLKPEDTGVYYCAAVYYGDIGHEYWGQGTQVTVSC | low polyreactivity |
| QVQLVESGGGLVQAGGSLRLSSGASGSTFVTYAMGWYRQAPGKEREFVAAISSTGTGRTYYADSVKGRFTISRDNAKNPVYLQMNSLKPEDTAVYYCAADLYGTYDYWGQGTQVTVSS | low polyreactivity |
| QVQLVESGGGLVQAGGILRLSCAASGSTFSSNAMGWYRQAPGKERELVAAISVNGGSTNYADSVKVRFTISRDNAKNTVYLQMNSLKPEDTAVYYCAAEPAKVAFYRGDYWGQGTEVTVSS | low polyreactivity |
| QVQLVESGGGLVQAGGSLRLSCAASGRTFAVYAMGWYRQAPGKERELVAAITLGASRTYYADSVKGRFTISRDNAKNTVYLQMNSLKPEDTAVYYCNAVGRRNVDSSLNDYWGQGTQVTVSS | low polyreactivity |
| QVQLVESGGGLVQAGGSLRLSCAASGRIFGDNGMGWYRQAPGKERELVTYADSVKGRFTISRDNAKNTVYLQLNSLQPEDTAVYYCYSPFGGKYDYWGQGTQVTVSS | low polyreactivity |
| QVQLVESGGGLVQAGGSLRLSCAASGSTFYYYTMGWYRQAPGKERELVAAISGSGSRTYYADSVKGRFTISRDNAKNTVYLQMNSLNPEDTGVYYCAAKRSYPYGSGYWGQGTQVTVSS | high polyreactivity |
| QVQLVESGGGLVQAGGSLRLICAASRFYTMGWYRQATVKERELVAAISWSGGDTYYADSVKGRFTISRDNAKNTVYLQMNSLKPEDTAVYYCAKKTIGSYVHEPFYYWGQGTQVTVSS | low polyreactivity |
| QVQLVESGGGLVHAGGSLRLSCAACGRIFSRNAMGWYRQAPWKERELVAAITWRGGSTYYADSVKGRFTSSRDNAKNTVYLQMNSLKPEDTAVYYCNRDYRQYGYAYSGRFYWGHGTQVTVSS | high polyreactivity |
| QVQLVESGGGLVQAGGSLRLSCSASGRIFSGYAMGWYRQAPGKERELVAAITSVGSTNYADSVKGRFTISRDNAKNTVYLQMNSLKTEDTAVYYCAARSQIYYRYRSYGYWGQGTQVTVSS | high polyreactivity |
| QVQLVESGGGLVQAGGSLRISCAASGSIFVEYDMGWYRQAPGKERELVADISGTGNTYYADSVKGRFTISRDNAKNTVYLQMNSLKPEDTAVYYCAAGTYYQNYWSPFVWYDYWGQGTQVTVSS | high polyreactivity |
| QVQLVESGGGLVQAGGRLRLSCAASGITFTYYSMGGYRQAPGKERELVAAITDDGNTNYADSVKGRFTISRDNAKNTVYLQMNSLIPEDTAVYYCAADLLGIPDYEYWGQGTQVTVSS | low polyreactivity |
| QVQLVESGGGLVQAGCSLRLSCAASGFTFYPYAMGWYRQAPGKERELVAAITRGGSTYYADSVKGRFTISRDNEKNTVYLQMNSLTPEDTAVYYCNAYWQGYGYDYWGQGTQVTVSS | low polyreactivity |
| QVQLVESGVGLVQAGGSLRLSCAASGITLYNYAMGWYRHAPGKERELVAAISLSGGRTYYADSVKGRFTISRDNAKNTVYLQMNSLKPEDTAVYYCAADWLNSDPYNYWGQGTQVTVSS | low polyreactivity |

| Sequence | polyreactivity (PSR sort gate) |
| --- | --- |
| QVQLVESGGGLVQAGGSLRLSCAASGRIFGYNAMGWYRQAPGKERELVAAISGSGGSTYYADSVKGRFTISRDNAKNTVYLQMNSLKPEDTAVYYCATRHGRYPYTLDYWGQGTQVTVSS | low polyreactivity |
| QVQLVESGGGLVQAGGSLRLSCAASGSTFYRYAMGWYRQAPGKERELVARIRLSGTSTYYADSVKGRFTISRDNAKNTVYLQMNSLKPEDTAVYYCAAELYSRNWRSQYDYWGQGSQVTVSS | high polyreactivity |
| QVQLVESGVGLVQAGGILRLSCAASGRIFYKNAMVWYRQAPGKERELVATITYSDGTTYYADSLKGRFTISRDNAKNTVYLQMNSLKPEDTAVYYCAAQTDSVESDYWGQGTQVTVSS | low polyreactivity |
| QVQLVESGGGLVQAGGSLRLSCAASGSTFGLYAMGRYRQAPGKERELVAAIRYSDGSTYYADSVKGRFTISRDNAKNTVYLQMNSLKPEDTAVYYCAAEIGTYFHVPTEYDYWGQGTQVTVSS | low polyreactivity |
| QVQLVESGGGLVQAGGSLRLSCAASGIIFYYNAMGWNRKAPGKERELVAAISQRGSSTYYADSVKGRFTISRDNAQNTVYLQMNSLKPEDTAVYYCAKRFIYGRYNYWGQGTQVTVSS | high polyreactivity |
| QVQLVESGGGLVQAGGSLRLSCAASGSTFYINAMGWYRQAPGKEREFVAAITSRGGSTYYADSVKGRFTISRDNAKNTVYLQMNSLKPEDTAVYYCAARNFLSRRGTYDYWGQGTQVTVSS | high polyreactivity |
| QVQLEESGGVLVQAGGSLRLTCAAAGSILAYNSMGWYREAPGKERELVAAISWTGRTYYADSVKGRFTISRDNEKNTVYLQMNSLIPEDTAVYYCNARGRQRSRGSQIYDYWGQGTQVTVSS | high polyreactivity |
| QVQLVESGGGLVQAGGSLRLICAASGRTFVKNAMGWSRQAPGKERELVAAIDRGSRTNYADSVKGRFTISRDNAKNTVYLQMNSLKPEDTAVYYCATRYRVRDDQTGTWSIFGYWGQGTQVTVSS | high polyreactivity |
| QVQLVESGGGLVQAGGSLRLSCAASGRIFLFYAMGWYRQAPGKERELVAGIRSGGSTNYADSVKGRFTISRDNAKNTVYLQMNSLKPEDTAVYYCAAASYFVYPRLEGYWGQGTQVTVSS | low polyreactivity |
| QVHLVESGGGLVQAGGSLRLSCAASGSTFIYNTMGWYRQAPGKERELVATITDSSDSTNYADSVKGRFTITRDNAKNTVYLQMNSLKPDDTAVYYCAADGEVDIATYPSQITDYDYWGQGTQVTVSS | low polyreactivity |
| QVQLVESGGGLVQAGGSLRLSCAASGSIFNRYAMGWYRQAPGKEREIVAAISTHTGTTYYADSVKGRFTISRDNAKNTVYLQMNSLKPEDTAVYYCDKRSRYGYGKSYDYWGQGTQVTVSS | high polyreactivity |
| QVQLVESGGGLDQAGGSLRLSCAASGSIFYFYTMGWYRQAPGKEREFVAAINGIGGSTYYADSVKGRFTISRDNAKNTVYLQMNRLKPEDTAVYYCAADAPWFKRNARKYNYWGQGTQVTVSS | low polyreactivity |
| QVQLVESGGGLVQAGGSLRLSCAASGSIFVGKAMGWYRQAPGKERELVAAISSSGGRTYYADSVKGRFTISRDNAKNTVYLQMNSLKPEDTAVYYCAADVSYKVKSWSVYRYEYWGQGTQVTVSS | high polyreactivity |
| QVQLVESGGGLVQAGGSLRLSCAASGITFPDYAMGWYRQAPGKERELVAAISRGVNTYYADSVKGRFTISRDNAKNTVYLQMNSLKPEDTAVYYCNRRGSSGYDYWGQGSQVTVSS | low polyreactivity |
| QVQLVESGGGLVQAGGSLRLSCAASGSTFSSNPMGWYRQAPGKERELVAAISVNGGSTNYADSVKGRFTISRDNAKNTVYLQMNSLKPVDTAVYYCAAEPAKVAFYRGDYWGQGTQVTVSS | low polyreactivity |
| QVQLVESGGGLVQAGGSLRLSCAASGFIFRSYAMGWYRQAPGKERELVAGISYRGGSTYYADSVKGRFTISRDNAKNTVYLQMNSLKPEDTAVYYCAATAWYNWYFGLDYWGQGTQVTVSS | high polyreactivity |
